# Earlier results in paper PMC4465285.
# Columns and labels:
# [1] = biological target: F-actin (Saccharomyces cerevisiae) (UniProt P60010); test: fluorescence titration and cosedimentation
# [2] = biological target: F-actin (Oryctolagus cuniculus) (UniProt P68135)
substance,measurement,setting,value
Cofilin-1 (from UniProt P23528),Kd,[1],16 nM
Drebrin 1-300 (from UniProt Q16643),Kd,[2],200 nM
